The text below walks through data of patent publication US20210395725A1 (EVERCYTE, published 2021).

Test [1] deals with T1, human EGFR-Fc (human, UniProt P00533 25-645, biotinylated with EZ-Link Sulfo-NHS-LC-LC-Biotin in most assays).
T1 construct: Bought; also called Human EGFR-Fc-biotin; EGFR-Fc-biotin
Description: HEK293-6E cell display flow cytometry; 500 nM biotinylated antigen + streptavidin-Alexa Fluor 647; secondary only 5.82. (In general: A flow cytometer gives signals particle by particle.)
Description: (§1) 1×10⁵ cells have been blocked in 2% BSA-PBS for 30 min on ice and then stained with each 500 nM biotinylated human EGFR-Fc, biotinylated human Her2/neu-Fc and biotinylated mouse EGFR-Fc for 30 min on ice in 2% BSA-PBS. […] Cells were then centrifuged at 300 g, 5 min at 4° C. and resuspended in 200 μl ice-cold PBS. […] The fluorescence has been determined with Guava EasyCyte flow cytometer.

The target in test [2] is T2, mouse EGFR-Fc (mouse, UniProt Q01279 25-647, limits assumed, biotinylated with EZ-Link Sulfo-NHS-LC-LC-Biotin).
T2 construct: Bought; also called Mouse EGFR-Fc-biotin; biotinylated mouse EGFR-Fc
The description is as above.
Description: as §1

The target in test [3] is T3, human Her2/neu-Fc (human, UniProt P04626 23-652, biotinylated with EZ-Link Sulfo-NHS-LC-LC-Biotin).
T3 construct: Bought; also called Human Her2/neu-Fc-biotin; biotinylated human Her2/neu-Fc
Described as above.
Description: as §1

Test [4] has as its target T3, human Her2/neu-Fc. Description: flow cytometry, HEK293-6E cell display (pDisplay).
Description: as §1
(§2) 1×10⁵ cells have been blocked in 2% BSA-PBS for 30 min on ice and then stained with each 500 nM biotinylated human EGFR-Fc, biotinylated human Her2/neu-Fc and biotinylated mouse EGFR-Fc for 30 min on ice in 2% BSA-PBS. […] Cells were then centrifuged at 300 g, 5 min at 4° C. and re-suspended in 200 μl ice-cold PBS. […] The fluorescence has been determined with Guava EasyCyte flow cytometer.
In test [5] the target is T4, streptavidin-Alexafluor 647 (UniProt P22629 37-163, limits assumed, Alexa Fluor 647 conjugate).
T4 construct: Secondary detection reagent, tested alone as a control; also called secondary reagent; 2nd
T4 sequence (P22629 37-163 limits assumed): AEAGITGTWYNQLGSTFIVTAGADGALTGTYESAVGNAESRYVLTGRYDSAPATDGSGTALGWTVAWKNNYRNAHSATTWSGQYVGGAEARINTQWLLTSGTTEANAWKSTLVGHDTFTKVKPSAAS
Kind of test: yeast display flow cytometry, secondary reagent only.

Test [6] has as its target T4, streptavidin-Alexafluor 647. Description: yeast display flow cytometry; secondary reagent only.
Test [7] deals with T2, mouse EGFR-Fc. Description: yeast display flow cytometry, clone 9.
The target of test [8] is T2, mouse EGFR-Fc. Kind of test: yeast display flow cytometry; mouse EGFR-Fc + streptavidin-Alexafluor 647.
Test [9] deals with T1, human EGFR-Fc. Kind of test: HEK293-6E cell display flow cytometry; 500 nM biotinylated antigen + streptavidin-Alexa Fluor 647; secondary only 2.67.
Description: as §2
The target in test [10] is T2, mouse EGFR-Fc. The test is described as above.
Description: as §2
Test [11] deals with T3, human Her2/neu-Fc. The test is described as above.
Description: as §2
The target in test [12] is T1, human EGFR-Fc. Description: flow cytometry, HEK293-6E cell display (pDisplay).
Description: as §1, §2
Test [13] addresses T2, mouse EGFR-Fc. Kind of test: flow cytometry, HEK293-6E cell display (pDisplay).
Description: as §1, §2
In test [14] the target is T1, human EGFR-Fc. Kind of test: HEK293-6E cell display flow cytometry; 500 nM biotinylated antigen + streptavidin-Alexa Fluor 647; secondary only 14.11 (same values as in Table 12).
Description: as §2
In test [15] the target is T2, mouse EGFR-Fc. Described as above.
Description: as §2
For test [16], the target named is T3, human Her2/neu-Fc. The description is as above.
Description: as §2
Test [17] has as its target T1, human EGFR-Fc. Kind of test: HEK293-6E cell display flow cytometry; 500 nM biotinylated antigen + streptavidin-Alexa Fluor 647; secondary only 14.11.
Description: as §2
In test [18] the target is T2, mouse EGFR-Fc. Described as above.
Description: as §2
Test [19] has as its target T3, human Her2/neu-Fc. The test is described as above.
Description: as §2
The target in the next test is T5, human placental laminin (human).
T5 construct: Bought; also called human laminin; laminin-biotin
Description: ELISA; biotinylated laminin 5 µg/ml on streptavidin plate, neat eluted His-tagged protein, anti-pentaHis-HRP. For orientation: ELISA stands for enzyme-linked immunosorbent assay.

Description for human placental laminin: Neat eluted proteins were tested for binding to their cognate antigen and BSA as a control antigen. Streptavidin-activated plates (Immobilizer, NUNC) were coated with biotinylated laminin at 5 μg/ml in PBS for 30 min at RT and blocked with 4% BSA-PBS for 1 h at RT. Eluted proteins were added in 2% BSA-PBS and allowed to bind for 1 h at RT. […] The reaction was stopped with the addition of H₂SO₄ and the absorbance read at 450/620 nm (Table 15).

B1: EGFR-specific CD81 LEL binder L2B_EU1_1 (designed binder)
chain: FVNKDQIAKDVKQFYDQALWWCCVLYKANNACAVVKTFHETLDCCGSSTGRSHTACVLKGNLCPSGSNIISNLFKEDCHQKIDDLFSGK
notes: also called L2BE1_1
Take B1: the “% antigen binding cells” value with human EGFR-Fc [1] came to 71.1%; with mouse EGFR-Fc [2] it was 89.3%; with human Her2/neu-Fc [3], 8.17%. The binding result in the test with human Her2/neu-Fc [4] is recorded as “no binding (tested: 500 nM)”.

B2: CD81 LEL library 1 variant RAN / IWRARRRRS (yeast clones 3, 13, 21 of the mouse EGFR-Fc selection) (designed binder)
chain: FVNKDQIAKDVKQFYDQALQQAVVDDDANNAKAVVKTFHETLDCCGSRANTALTTSVLKNNLCPSGSNIWRARRRRSCHQKIDDLFSGK
notes: also called clone 3; clone 13
In the case of B2, in test [5], the binding result was “no binding”.

B3: CD81 LEL library 1 variant VRR / RRPRKRTRS (yeast clones 1, 8, 15 of the mouse EGFR-Fc selection) (designed binder)
chain: FVNKDQIAKDVKQFYDQALQQAVVDDDANNAKAVVKTFHETLDCCGSVRRTALTTSVLKNNLCPSGSNRRPRKRTRSCHQKIDDLFSGK
notes: also called clone 1; clone 8
Take B3: the binding result in test [5] is listed as “no binding”.

B4: CD81 LEL library 1 variant SSS / SRRWRHRIA (yeast clones 6, 18 of the mouse EGFR-Fc selection) (designed binder)
chain: FVNKDQIAKDVKQFYDQALQQAVVDDDANNAKAVVKTFHETLDCCGSSSSTALTTSVLKNNLCPSGSNSRRWRHRIACHQKIDDLFSGK
notes: also called clone 6; clone 18
B4: in [5], the binding result is “no binding”.

B5: CD81 LEL library 1 variant MGN / WWGRRFRVS (yeast clone 9 of the mouse EGFR-Fc selection) (designed binder)
chain: FVNKDQIAKDVKQFYDQALQQAVVDDDANNAKAVVKTFHETLDCCGSMGNTALTTSVLKNNLCPSGSNWWGRRFRVSCHQKIDDLFSGK
Take B5: the median fluorescence in [6] is 14.6; with mouse EGFR-Fc [8] it was 11.8. Further, the binding result in the test with mouse EGFR-Fc [7] was “no binding”.

B6: CD81 LEL library 1 variant ERL / RRSRRRVHD (yeast clones 2, 4, 7, 10, 11, 12, 14, 16, 17, 20, 22, 23 of the mouse EGFR-Fc selection) (designed binder)
chain: FVNKDQIAKDVKQFYDQALQQAVVDDDANNAKAVVKTFHETLDCCGSERLTALTTSVLKNNLCPSGSNRRSRRRVHDCHQKIDDLFSGK
notes: also called clone 2; clone 4
For the molecule B6, the binding result in test [5] is given as “no binding”.

B7: CD81 LEL library 1 variant SFS / RRFRKRPGD (yeast clones 5, 19 of the mouse EGFR-Fc selection) (designed binder)
chain: FVNKDQIAKDVKQFYDQALQQAVVDDDANNAKAVVKTFHETLDCCGSSFSTALTTSVLKNNLCPSGSNRRFRKRPGDCHQKIDDLFSGK
notes: also called clone 5; clone 19
For B7, the binding result in [5] was “no binding”.

B8: anti-Her2/neu directed CD81 LEL clone 81_H2_11 (designed binder)
chain: FVNKDQIAKDVKQFYDQALVNCCYTRAANNACAVVKTFHETLDCCGSSTHYVDTHCVLNRNLCPSGSNIISNLFKEDCHQKIDDLFSGK
notes: also called anti-Her2/neu clone
Take B8: the “% antigen binding cells” value with human EGFR-Fc [9] amounted to 5.16%; with mouse EGFR-Fc [10] it was 5.68%; in the test with human Her2/neu-Fc [11], 44.2%. Moreover, the binding result with human EGFR-Fc [12] and in the test with mouse EGFR-Fc [13] was “no binding (tested: 500 nM)” each time.

B9: wild-type human CD81 LEL (other)
chain: FVNKDQIAKDVKQFYDQALQQAVVDDDANNAKAVVKTFHETLDCCGSSTLTALTTSVLKNNLCPSGSNIISNLFKEDCHQKIDDLFSGK
notes: the formats are named in the assay field; The soluble form runs as a dimer in SEC; also called wild-type CD81 LEL; hCD81 LEL
With B9, the “% antigen binding cells” value with human EGFR-Fc [14] amounted to 10.4%; with mouse EGFR-Fc [15], 12.8%; in the test with human Her2/neu-Fc [16], 10.5%; with human EGFR-Fc [17], 10.4%; with mouse EGFR-Fc [18] it was 12.8%; with human Her2/neu-Fc [19] it was 10.5%. In the test with mouse EGFR-Fc [8], the median fluorescence turned out to be 9.1.

B10: laminin-binding CD81 LEL mutant L3A_LU1 (designed binder)
chain: FVNKDQIAKDVKQFYDQCLLWACSKRYKYNAKACVKTFHETLDCCGSSTMGNLTECVLIENLCPSGSNIISNLFKEDCHQKIDDLFSGK
On to B10, for which the “A450/620 (average)” value in the test with human placental laminin was found to be 1.7.

B11: laminin-binding CD81 LEL mutant L2A_LU1 (designed binder)
chain: FVNKDQIAKDVKQFYDQALRECCNTFDANNACAVVKTFHETLDCCGSSTTHSSTGCVLFFNLCPSGSNIISNLFKEDCHQKIDDLFSGK
As for B11, in the test with human placental laminin, the “A450/620 (average)” value was found to be 0.156.

B12: laminin-binding CD81 LEL mutant L3B_LU1_2 (designed binder)
chain: FVNKDQIAKDVKQFYDQCLKYACKQGDWENAKACVKTFHETLDCCGSSTVANMTRCVLPANLCPSGSNIISNLFKEDCHQKIDDLFSGK
With B12, the “A450/620 (average)” value with human placental laminin came to 1.32.
